Target: estrogen receptor alpha (ER), purified recombinant (Homo sapiens, UniProt P03372 P03372:1-595)
Assay: EMSA; 60 nM ER, 100 nM estradiol, HEPES pH 7.5, 100 mM KCl, 1 mM EDTA, poly(dI-dC), 4 C; competed by 100x unlabelled ERE; blocked by 0.5 uM pY8/pY10/mY8 peptides, not by conY
Conditions: tags: Panvera (Madison, WI); chain copies: 2 (homodimer, stated); label: 32P 5'-end (polynucleotide kinase)
Description: FIG. 6B. Purified human ER (60 nM) was incubated with control solution (CON), a 100-fold molar excess of unlabelled ERE (100 ERE) or with peptides at 250 nM or 500 nM. ER was incubated with peptides for 15 min at 4° C. followed by addition of 100 nM estradiol-17β and ^32P-ERE. Peptides included phosphotyrosyl-octapeptide (pY8), control non-phosphorylated octapeptide (conY), malonyltyrosyl-octapeptide(mY8), phosphotyrosine amino acid alone (pY), as an additional control, and a phosphotyrosyl-decapeptide, N-Val-Pro-Leu-pTyr-Asp-Leu-Leu-Leu-Glu-Met-C (pYl 0) (SEQ ID NO:3). Although not shown, the effect of conY at 500 nM was the same as that shown at a concentration of 250 nM.
Interaction of ER with nuclear ERE is prerequisite for activation of transcription. To assess the specific binding of ER with ERE, purified recombinant human ER from MCF-7 breast cancer cells were used. A double-stranded 27-bp probe (5'-[…]-3') (SEQ ID NO:12) encoding the Xenopus vitellogenin A_2 ERE was ^32P-end-labeled with polynucleotide kinase. Gel mobility shift assays for the human ER were performed as described (Arnold et al., 1995a; Arnold and Notides, 1995; Arnold et al., 1995b). […]

estrogen receptor alpha (ER), purified recombinant, sequence (P03372 whole entry, one chain of several): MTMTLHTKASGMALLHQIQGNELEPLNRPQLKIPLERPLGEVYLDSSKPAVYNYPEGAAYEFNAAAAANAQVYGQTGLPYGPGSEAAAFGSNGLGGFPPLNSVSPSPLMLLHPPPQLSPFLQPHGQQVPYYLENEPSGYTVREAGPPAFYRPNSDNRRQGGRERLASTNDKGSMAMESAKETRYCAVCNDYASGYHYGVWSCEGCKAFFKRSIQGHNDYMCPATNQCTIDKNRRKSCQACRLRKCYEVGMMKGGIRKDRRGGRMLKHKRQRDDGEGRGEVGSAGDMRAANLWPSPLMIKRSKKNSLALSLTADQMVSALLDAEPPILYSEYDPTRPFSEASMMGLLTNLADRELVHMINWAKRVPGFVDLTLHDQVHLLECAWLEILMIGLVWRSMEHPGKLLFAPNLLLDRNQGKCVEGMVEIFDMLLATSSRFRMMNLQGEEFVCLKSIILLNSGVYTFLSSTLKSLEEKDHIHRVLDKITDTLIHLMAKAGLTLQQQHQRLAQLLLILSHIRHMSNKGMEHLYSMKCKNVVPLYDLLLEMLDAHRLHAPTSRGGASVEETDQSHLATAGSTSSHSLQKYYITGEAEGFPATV

B1: vitellogenin A2 ERE 27-bp probe (dsDNA)
DNA 1: GATCCTAGAGGTCACAGTGACCTACGA
DNA 2: TCGTAGGTCACTGTGACCTCTAGGATC
  binding result: binds

Source: patent US6306832, “Peptide antiestrogen compositions and methods for treating breast cancer” (University of California)
